Source: patent US7192728B2, “Screening assays for agents that alter inhibitor of apoptosis (IAP) protein regulation of caspase activity” (The Burnham Institute, priority 1997, dated 2007)

T1: caspase-7 (Homo sapiens, UniProt P55210)
T1 construct: Purified active caspase concentrations ranged from 0.1 nM to 10 nM; His6; made in house; host or cells: E. coli BL21(DE3)pLysS
T1 sequence (P55210 24-198 limits assumed): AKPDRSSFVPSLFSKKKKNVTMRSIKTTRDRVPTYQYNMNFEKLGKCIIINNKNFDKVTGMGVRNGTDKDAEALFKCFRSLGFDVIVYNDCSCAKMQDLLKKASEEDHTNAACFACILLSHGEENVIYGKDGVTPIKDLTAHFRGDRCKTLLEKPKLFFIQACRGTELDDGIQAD
T1 sequence (P55210 207-303 limits assumed): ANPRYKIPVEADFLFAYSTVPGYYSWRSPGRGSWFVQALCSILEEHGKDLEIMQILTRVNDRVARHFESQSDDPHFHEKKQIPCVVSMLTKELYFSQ

T2: caspase-3 (Homo sapiens, UniProt P42574)
T2 construct: to produce the 17–20 kDa mature, fully processed large subunit of the active caspase-3 enzyme; a smaller, fully processed, subunit of about 11 kDa; His6; made in house; host or cells: E. coli BL21(DE3)pLysS
T2 sequence (P42574 29-175 limits assumed): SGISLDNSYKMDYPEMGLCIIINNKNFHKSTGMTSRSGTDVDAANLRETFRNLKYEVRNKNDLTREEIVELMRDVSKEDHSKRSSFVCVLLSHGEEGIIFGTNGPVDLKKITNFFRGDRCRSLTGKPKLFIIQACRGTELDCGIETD
T2 sequence (P42574 176-277 limits assumed): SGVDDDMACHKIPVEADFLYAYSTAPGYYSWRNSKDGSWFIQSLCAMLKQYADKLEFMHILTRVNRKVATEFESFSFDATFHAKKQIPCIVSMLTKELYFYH


Key:
[1] = molecular target: T1, caspase-7; assay: GST pull-down binding to caspase-7; conditions: glutathione-Sepharose beads, immunoblot
Protocol: (§1) Following incubation at 4° C. for 60 min, the beads were removed by centrifugation and washed twice with 100 vol 50 mM Tris (pH 7.5), 150 mM KCl, 2 mM DTT and 0.025% Triton-X100, then subjected to SDS-PAGE and immunoblot assay (see Example I.B.3).

[2] = molecular target: T2, caspase-3; assay: GST pull-down binding to caspase-3; conditions: glutathione-Sepharose beads, immunoblot
Protocol: as §1

[3] = molecular target: T2, caspase-3; assay: Inhibition of purified recombinant caspase-3, DEVD substrate hydrolysis and progress curves; assay type: biochemical; conditions: DEVD-pNA hydrolysis
Protocol: Purified recombinant caspase-1, caspase-3, caspase-6, caspase-7 or caspase-8 were incubated with DEVD-pNA, either alone or with a 10-fold to 50-fold molar excess of GST-XIAP ([…]) and substrate hydrolysis was measured. Purified active caspase concentrations ranged from 0.1 nM to 10 nM. XIAP concentration ranged from 0.1 nM to 500 nM. Assays were performed in caspase buffer (50 mM Tris, pH 7.4, 100 mM NaCl, 10% sucrose, 5–10 mM DTT, 1 mM EDTA and 0.1% CHAPS).
Equilibria were determined from progress curves when substrate hydrolysis reached a steady-state; slopes were calculated by curve fit analysis using the cricket graph program. Experiments were performed using purified recombinant caspase-3, caspase-6, or caspase-7. DEVD-AFC hydrolysis was measured using 0.1 nM caspase and a range of concentrations (0.2 to 12 μM) of recombinant XIAP (rXIAP). […] Average ratio velocities (vi/vo, where “vi” indicates presence of GST-XIAP and “vo” indicates absence of GST-XIAP) were determined.
Caspase activity was determined essentially as described in Example II, using the benzylyoxycarbonyl-DEVD-AFC (SEQ ID NO: 2) substrate and was assayed at 37° C. using the Perkin-Elmer LS50B fluorometric plate reader in the kinetic mode with excitation and emission wavelengths of 400 nm and 505 nm, respectively. […] Reactions were performed in caspase buffer (50 mM Hepes, 100 mM NaCl, 1 mM EDTA, 0.1% CHAPS, 10% sucrose, 5 mM DTT). The inhibition constant, Ki, was calculated as described (Zhou et al., supra, 1997). Immunoblot analysis was performed as described in Example I.B.3.

[4] = molecular target: T1, caspase-7; assay: Inhibition of purified recombinant caspase-7, DEVD substrate hydrolysis and progress curves; assay type: biochemical; conditions: DEVD-pNA hydrolysis
[5] = tested on: DEVD-pNA hydrolysis activity in 293 cell cytosolic extracts; assay: Cytochrome c/dATP-induced caspase activation (DEVD hydrolysis) in 293 cell cytosolic extracts; assay type: biochemical, human; conditions: 3 μM; extracts activated 30 min with cytochrome c and dATP
Protocol: Cells were washed with ice cold buffer A (20 mM Hepes (pH 7.5), 10 mM KCl, 1.5 mM MgCl2, 1 mM EDTA, 1 mM DTT and 0.1 mM PMSF) and suspended in 1 vol buffer A, then incubated on ice for 20 min. 293 cells were disrupted by passage 15× through a 26 gauge needle and Jurkat T cells were disrupted by dounce homogenization in 2 ml using 15 strokes with a pestle B. Cell extracts (10–15 mg total protein/ml) were clarified by centrifugation at 16,000×g for 30 min, then the NaCl concentration was increased by 50 mM. Cytosolic fractions were used immediately or stored frozen at −80° C.
Caspase activity was assayed by release of either 7-amino-4-trifluoromethyl-coumarin (AFC) or p-nitroanilide (pNA) from benzylyoxycarbonyl-DEVD (SEQ ID NO: 2) or benzylyoxycarbonyl-YVAD (SEQ ID NO: 3) synthetic peptides using a Molecular Devices Spectromax 340 for AFC labeled peptides or Perkin/Elmer LS50B for pNA labeled peptides (see Example II; see, also, Zhou et al., supra, 1997). Cytosolic extracts from 293 cells or Jurkat T cells were used directly (negative control) or were treated with 1 μM cytochrome c and 1 mM dATP or with cytochrome c, dATP and 0.2 μM GST-XIAP. Additional control reactions were performed by substituting 2 μM GST-Bcl-2, GST-Bax, GST-NM23 or GST-CD40 cytosolic domain, or 5 μM His6-S5a protein for GST-XIAP. DEVD-pNA hydrolysis was measured at various times and multiple experiments were performed using several different GST-XIAP preparations.

[6] = listed as GST-fusion containing the RING domain

binding of caspase-7 (in words) [1] | binding of caspase-3 (in words) [2] | inhibition of caspase-3 in vitro (in words) [3] | inhibition of caspase-7 in vitro (in words) [4] | inhibition of caspase-3 in vitro (in words) [3, 6] | inhibition of caspase-7 in vitro (in words) [4, 6] | Molecule | DEVD hydrolysis in activated 293 cell cytosolic extracts (in words) [5]
bound | bound | – | – | – | – | c-IAP-2(BIR): construct comprising the BIR domains of c-IAP-2 (positions 1 to 335) (protein, left off: a dimerising Fc or GST) MNIVENSIFLSNLMKSANTFELKYDLSCELYRMSTYSTFPAGVPVSERSLARAGFYYTGVNDKVKCFCCGLMLDNWKRGDSPTEKHKKLYPSCRFVQSLNSVNNLEATSQPTFPSSVTNSTHSLLPGTENSGYFRGSYSNSPSNPVNSRANQDFSALMRSSYHCAMNNENARLLTFQTWPLTFLSPTDLAKAGFYYIGPGDRVACFACGGKLSNWEPKDNAMSEHLRHFPKCPFIENQLQDTSRYTVSNLSMQTHAARFKTFFNWPSSVLVNPEQLASAGFYYVGNSDDVKCFCCDGGLRCWESGDDPWVQHAKWFPRCEYLIRIKGQEFIRQVQ | inhibited DEVD hydrolysis
bound | bound | – | – | – | – | c-IAP-1(BIR): construct comprising the BIR domains of c-IAP-1 (positions 1 to 350) (protein, left off: a dimerising Fc or GST) MHKTASQRLFPGPSYQNIKSIMEDSTILSDWTNSNKQKMKYDFSCELYRMSTYSTFPAGVPVSERSLARAGFYYTGVNDKVKCFCCGLMLDNWKLGDSPIQKHKQLYPSCSFIQNLVSASLGSTSKNTSPMRNSFAHSLSPTLEHSSLFSGSYSSLSPNPLNSRAVEDISSSRTNPYSYAMSTEEARFLTYHMWPLTFLSPSELARAGFYYIGPGDRVACFACGGKLSNWEPKDDAMSEHRRHFPNCPFLENSLETLRFSISNLSMQTHAARMRTFMYWPSSVPVQPEQLASAGFYYVGRNDDVKCFCCDGGLRCWESGDDPWVEHAKWFPRCEFLIRMKGQEFVDEIQG | inhibited DEVD hydrolysis

The remaining lines, values behind:

Molecule | binding of caspase-7 (in words) [1] | binding of caspase-3 (in words) [2] | inhibition of caspase-3 in vitro (in words) [3] | inhibition of caspase-7 in vitro (in words) [4] | inhibition of caspase-3 in vitro (in words) [3, 6] | inhibition of caspase-7 in vitro (in words) [4, 6] | DEVD hydrolysis in activated 293 cell cytosolic extracts (in words) [5]
NAIP: neuronal apoptosis inhibitory protein, GST construct (protein, UniProt Q13075 1-1403, looked up, GST tag) Baculoviral IAP …: MATQQKASDERISQFDHNLLPELSALLGLDAVQLAKELEEEEQKERAKMQKGYNSQMRSEAKRLKTFVTYEPYSSWIPQEMAAAGFYFTGVKSGIQCFCCSLILFGAGLTRLPIEDHKRFHPDCGFLLNKDVGNIAKYDIRVKNLKSRLRGGKMRYQEEEARLASFRNWPFYVQGISPCVLSEAGFVFTGKQDTVQCFSCGGCLGNWEEGDDPWKEHAKWFPKCEFLRSKKSSEEITQYIQSYKGFVDITGEHFVNSWVQRELPMASAYCNDSIFAYEELRLDSFKDWPRESAVGVAALAKAGLFYTGIKDIVQCFSCGGCLEKWQEGDDPLDDHTRCFPNCPFLQNMKSSAEVTPDLQSRGELCELLETTSESNLEDSIAVGPIVPEMAQGEAQWFQEAKNLNEQLRAAYTSASFRHMSLLDISSDLATDHLLGCDLSIASKHISKPVQEPLVLPEVFGNLNSVMCVEGEAGSGKTVLLKKIAFLWASGCCPLLNRFQLVFYLSLSSTRPDEGLASIICDQLLEKEGSVTEMCVRNIIQQLKNQVLFLLDDYKEICSIPQVIGKLIQKNHLSRTCLLIAVRTNRARDIRRYLETILEIKAFPFYNTVCILRKLFSHNMTRLRKFMVYFGKNQSLQKIQKTPLFVAAICAHWFQYPFDPSFDDVAVFKSYMERLSLRNKATAEILKATVSSCGELALKGFFSCCFEFNDDDLAEAGVDEDEDLTMCLMSKFTAQRLRPFYRFLSPAFQEFLAGMRLIELLDSDRQEHQDLGLYHLKQINSPMMTVSAYNNFLNYVSSLPSTKAGPKIVSHLLHLVDNKESLENISENDDYLKHQPEISLQMQLLRGLWQICPQAYFSMVSEHLLVLALKTAYQSNTVAACSPFVLQFLQGRTLTLGALNLQYFFDHPESLSLLRSIHFPIRGNKTSPRAHFSVLETCFDKSQVPTIDQDYASAFEPMNEWERNLAEKEDNVKSYMDMQRRASPDLSTGYWKLSPKQYKIPCLEVDVNDIDVVGQDMLEILMTVFSASQRIELHLNHSRGFIESIRPALELSKASVTKCSISKLELSAAEQELLLTLPSLESLEVSGTIQSQDQIFPNLDKFLCLKELSVDLEGNINVFSVIPEEFPNFHHMEKLLIQISAEYDPSKLVKLIQNSPNLHVFHLKCNFFSDFGSLMTMLVSCKKLTEIKFSDSFFQAVPFVASLPNFISLKILNLEGQQFPDEETSEKFAYILGSLSNLEELILPTGDGIYRVAKLIIQQCQQLHCLRVLSFFKTLNDDSVVEIAKVAISGGFQKLENLKLSINHKITEEGYRNFFQALDNMPNLQELDISRHFTECIKAQATTVKSLSQCVLRLPRLIRLNMLSWLLDADDIALLNVMKERHPQSKYLTILQKWILPFSPIIQK | bound | bound | – | – | – | – | –
GST fusion protein containing only the three BIR domains of XIAP: GST fusion of XIAP amino acids 1–337 (three BIR domains) (protein, UniProt P98170 1-337, looked up, fragment, GST fusion) MTFNSFEGSKTCVPADINKEEEFVEEFNRLKTFANFPSGSPVSASTLARAGFLYTGEGDTVRCFSCHAAVDRWQYGDSAVGRHRKVSPNCRFINGFYLENSATQSTNSGIQNGQYKVENYLGSRDHFALDRPSETHADYLLRTGQVVDISDTIYPRNPAMYSEEARLKSFQNWPDYAHLTPRELASAGLYYTGIGDQVQCFCCGGKLKNWEPCDRAWSEHRRHFPNCFFVLGRNLNIRSESDAVSSDRNFPNSTNLPRNPSMADYEARIFTFGTWIYSVNKEQLARAGFYALGEGDKVKCFHCGGGLTDWKPSEDPWEQHAKWYPGCKYLLEQKGQE | – | – | potently inhibited | potently inhibited | – | – | –
GST fusion protein containing the RING domain: GST fusion of XIAP amino acids 338–497 (RING domain) (protein, UniProt P98170 338-497, looked up, fragment, GST fusion) YINNIHLTHSLEECLVRTTEKTPSLTRRIDDTIFQNPMVQEAIRMGFSFKDIKKIMEEKIQISGSNYKSLEVLVADLVNAQKDSMQDESSQTSLQKEISTEEQLRRLQEEKLCKICMDRNIAIVFVPCGHLVTCKQCAEAVDKCPMCYTVITFKQKIFMS | – | – | had no effect | had no effect | no significant effect | no significant effect | –
